Experimental data reported in PMC4909244, “Crystal structure of glutamate-1-semialdehyde-2,1-aminomutase from Arabidopsis thaliana” (Acta Crystallographica. Section F, Structural Biology …, 2016).

Biological target: the molecule itself
Assay: SEC; size-exclusion chromatography, in solution; data not shown

B1: Glutamate-1-semialdehyde-2,1-aminomutase from Arabidopsis thaliana (AtGSA1) (enzyme)
chain: not shown
notes: The sense primer puts a TEV site (ENLYFQG) directly before VDEKKKS, so a Gly may remain at the N-terminus after cleavage (surmised from the primer); The protein retains the cofactors PMP/PLP; The first six N-terminal residues are not modelled in the structure; also called GSAM; glutamate-1-semialdehyde aminotransferase; source: E. coli BL21(DE3), purified (nickel-nitrilotriacetic acid column, TEV …)
stoichiometry N: 2
